The source of these data is patent US11015206B2, “Compositions and methods comprising sequences having hydroxyphenylpyruvate dioxygenase (HPPD) activity” (PIONEER HI-BRED INTERNATIONAL, INC., priority 2014, dated 2021).

Numbering of substitutions follows the chain as printed.

Holding throughout (format): biochemical, Z. mays
Series [1] deals with 4-hydroxyphenylpyruvate dioxygenase (HPPD). The experiment in a line: ON rate ratio: HPPD reaction rate with vs without inhibitor in the 70 to 90 second interval. The note with it: Table 7; tembotrione; combinatorial variants. Put shortly:
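Time courses of HPPD reactions, 60 or 120 nM enzyme with 100 μM HPP substrate, run with and without 4 μM inhibitor (e.g. mesotrione, tembotrione). Value is the rate with inhibitor over rate without, taken over 70–90 s; higher ratio reflects slower kON.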

For series [2] the test system is unchanged. The experiment in a line: OFF rate ratio: release of inhibitor from pre-formed enzyme-inhibitor complex. The note with it: Table 7; tembotrione; combinatorial variants. Put shortly: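 HPPD (7.2 μM) pre-incubated 1 h at RT with inhibitor (8 μM), then diluted into 25 mM Hepes pH 7, 2 mM ascorbate, 10 μM FeSO4, 100 μM HPP, 50 nM HGD; A320 followed 12 min. Ratio = steady-state rate with inhibitor over initial rate of inhibitor-free enzyme.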

The test system is the same in series [3]. Kind of series: Insensitivity parameter (ON × OFF) and trait fitness (ON × OFF × kcat/KM or × kcat). Details: key to ON × OFF / Insensitivity, mesotrione, ON × OFF / Insensitivity, tembotrione, ON × OFF / Insensitivity, topramezone, ON × OFF / Insensitivity, sulcotrione, ON × OFF / Insensitivity, isoxaflutole (DKN), ON × OFF: insensitivity = ON rate ratio × OFF rate ratio (surrogate for KD). Put shortly: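 Calculated, not measured directly: ON rate ratio × OFF rate ratio gives an insensitivity parameter serving as a KD surrogate.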

Series [4] has the same test system. The experiment in a line: Estimate of kcat from initial rate at saturating hydroxyphenylpyruvate without inhibitor (ON rate ratio assay). In short, it runs like this:
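Reactions used 60 or 120 nM HPPD and saturating 100 μM hydroxyphenylpyruvate without inhibitor. kcat was estimated from the initial rate at the known enzyme concentration.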

[5] abbreviates: Table 7, tembotrione, combinatorial variants.
Where [6] appears, read: Table 7, combinatorial variants.

B1: P056028-C-04 (protein)
chain: MGPTPTATAAGAAVAAASAAEQAAFRLVGHRNFVRFNPRSDRFQTLAFHHVELWCADAASAAGRFSFALGVPLAARSDLSTGNSAHASLLLRSGSLSLLFTAPYAHDADAATAALPSFSAAAARRFAADHGLAVRAVALRVADAEDAFRASVAAGARPAFGPVDLGRGFRLAEVELYGDVVLRYVSYPDGGAGEPFLPGFEGVASSGAADYGLSRFDHIVGNVPELAPAAAYMAGFTGFHEFAEFTTEDVGTTESGLNSMALANNSENVLLPLNEPVLGTKRRSQIQTFLDHHGGPGVQHIALASDDVLRTLREMRARSAMGGFEFLPPPLSDYYDGVRRCAGDVLTEAQINECQELGVMVDRDDEGVLLQIFTKPVGDRPTFFLEIIQRIGCMEKDEKGQEYQKGGCGGFGKGNFSQLFKSIEDYEKSLEAKRAAAAATAQGS
modifications: Zea mays variant form created by artificial means.
Consider B1, for which the ON rate ratio in series [1] was 0.727. The OFF rate ratio in series [2] is given as 0.322. Besides, the “ON × OFF” value in series [3] (Megatable 3, shuffled variants) is reported as 0.234; in series [3] (setting [5]), 0.234. Moreover, the “ON × OFF × kcat” value stood at 5.32 in series [3] (Megatable 3, shuffled variants) and 5.32 in series [3] (setting [5]). Also, the kcat in series [4] (Megatable 3, shuffled variants) is 0.378 s⁻¹; in series [4] (setting [6]), 0.378 s⁻¹.

B2: P056028-C-06 (protein)
chain: B1 chain with D107G, S214N, L278H, R340K, E356R, L385V, S417G, R434Q
modifications: Zea mays variant form created by artificial means.
With B2, in series [1], the ON rate ratio is recorded as 0.742. Besides, the OFF rate ratio in series [2] worked out at 0.351. Further, the “ON × OFF” value in series [3] (Megatable 3, shuffled variants) is 0.261; in series [3] (setting [5]), 0.261. Also, the “ON × OFF × kcat” value in series [3] (Megatable 3, shuffled variants) is listed as 2.77; in series [3] (setting [5]) it was 2.77. The turnover number (kcat) was 0.177 s⁻¹ in series [4] (Megatable 3, shuffled variants) and 0.177 s⁻¹ in series [4] (setting [6]).

B3: P056028-D-04 (protein)
chain: B1 chain with D107G, L182M, G191A, S206P, Y211L, S214N, L278H, R434Q
modifications: Zea mays variant form created by artificial means.
For B3, in series [1], the ON rate ratio is recorded as 0.696. Moreover, the OFF rate ratio in series [2] worked out at 0.197. Also, the “ON × OFF” value is 0.137 in series [3] (Megatable 3, shuffled variants) and 0.137 in series [3] (setting [5]). Also, the “ON × OFF × kcat” value came out at 1.71 in series [3] (Megatable 3, shuffled variants) and 1.71 in series [3] (setting [5]). In addition, the kcat in series [4] (Megatable 3, shuffled variants) is 0.207 s⁻¹; in series [4] (setting [6]), 0.207 s⁻¹.

B4: P056028-D-11 (protein)
chain: B1 chain with D107G, A142T, S206P, L278H, R340K, S417G, R434Q
modifications: Zea mays variant form created by artificial means.
Take B4: the ON rate ratio in series [1] is given as 0.719. Also, in series [2], the OFF rate ratio is 0.261. In addition, the “ON × OFF” value in series [3] (Megatable 3, shuffled variants) came to 0.188; in series [3] (setting [5]) it was 0.188. In addition, the “ON × OFF × kcat” value in series [3] (Megatable 3, shuffled variants) was determined as 3.21; in series [3] (setting [5]) it was 3.21. Moreover, the kcat in series [4] (Megatable 3, shuffled variants) is 0.285 s⁻¹; in series [4] (setting [6]), 0.285 s⁻¹.

B5: P056028-D-10 (protein)
chain: B1 chain with D107G, G191A, S206Q, N265D, L278H, S417G, R434Q
modifications: Zea mays variant form created by artificial means.
In the case of B5, in series [1], the ON rate ratio is reported as 0.670. In addition, the OFF rate ratio in series [2] was found to be 0.253. Besides, the “ON × OFF” value in series [3] (Megatable 3, shuffled variants) worked out at 0.170; in series [3] (setting [5]), 0.170. The “ON × OFF × kcat” value in series [3] (Megatable 3, shuffled variants) was 3.07; in series [3] (setting [5]), 3.07. Besides, the turnover number (kcat) in series [4] (Megatable 3, shuffled variants) was 0.302 s⁻¹; in series [4] (setting [6]), 0.302 s⁻¹.

B6: P056028-D-06 (protein)
chain: B1 chain with D107G, L182M, G191A, S206Q, Y211L, S214N, L278H, I387L, R434Q
modifications: Zea mays variant form created by artificial means.
B6: in series [1], the ON rate ratio turned out to be 0.731. Further, the OFF rate ratio in series [2] is listed as 0.424. Moreover, the “ON × OFF” value in series [3] (Megatable 3, shuffled variants) was determined as 0.310; in series [3] (setting [5]), 0.310. Moreover, the “ON × OFF × kcat” value in series [3] (Megatable 3, shuffled variants) was 3.07; in series [3] (setting [5]), 3.07. Further, the catalytic constant (kcat) in series [4] (Megatable 3, shuffled variants) is 0.165 s⁻¹; in series [4] (setting [6]), 0.165 s⁻¹.

B7: P056028-C-08 (protein)
chain: B1 chain with D107G, L182M, G191A, S206P, L278H, R340K, S417G, E431D, R434Q
modifications: Zea mays variant form created by artificial means.
On to B7, for which the ON rate ratio in series [1] is reported as 0.712. Moreover, the OFF rate ratio in series [2] turned out to be 0.381. Also, the “ON × OFF” value in series [3] (Megatable 3, shuffled variants) stood at 0.271; in series [3] (setting [5]), 0.271. The “ON × OFF × kcat” value in series [3] (Megatable 3, shuffled variants) amounted to 3.65; in series [3] (setting [5]), 3.65. Also, the catalytic constant (kcat) is 0.225 s⁻¹ in series [4] (Megatable 3, shuffled variants) and 0.225 s⁻¹ in series [4] (setting [6]).

B8: P056028-D-02 (protein)
chain: B1 chain with D107G, S206P, L278H, R340K, S417G, R434Q
modifications: Zea mays variant form created by artificial means.
With B8, the ON rate ratio in series [1] was determined as 0.730. Moreover, the OFF rate ratio in series [2] is listed as 0.299. Moreover, the “ON × OFF” value turned out to be 0.218 in series [3] (Megatable 3, shuffled variants) and 0.218 in series [3] (setting [5]). The “ON × OFF × kcat” value in series [3] (Megatable 3, shuffled variants) worked out at 5.31; in series [3] (setting [5]), 5.31. The turnover number (kcat) in series [4] (Megatable 3, shuffled variants) was 0.405 s⁻¹; in series [4] (setting [6]), 0.405 s⁻¹.

B9: P056028-D-01 (protein)
chain: B1 chain with D107G, A122T, G191A, S206Q, L278H, E356K, S417G, R434Q
modifications: Zea mays variant form created by artificial means.
Consider B9, for which, in series [1], the ON rate ratio came out at 0.728. Besides, the OFF rate ratio in series [2] stood at 0.348. In addition, the “ON × OFF” value is reported as 0.254 in series [3] (Megatable 3, shuffled variants) and 0.254 in series [3] (setting [5]). The “ON × OFF × kcat” value amounted to 5.39 in series [3] (Megatable 3, shuffled variants) and 5.39 in series [3] (setting [5]). The kcat is 0.355 s⁻¹ in series [4] (Megatable 3, shuffled variants) and 0.355 s⁻¹ in series [4] (setting [6]).

B10: P056028-D-05 (protein)
chain: B1 chain with D107G, G191A, L278H, R340K, E356R, R434Q
modifications: Zea mays variant form created by artificial means.
For the molecule B10, the ON rate ratio in series [1] is given as 0.730. In series [2], the OFF rate ratio turned out to be 0.508. The “ON × OFF” value in series [3] (Megatable 3, shuffled variants) worked out at 0.371; in series [3] (setting [5]), 0.371. The “ON × OFF × kcat” value is reported as 4.66 in series [3] (Megatable 3, shuffled variants) and 4.66 in series [3] (setting [5]). The kcat in series [4] (Megatable 3, shuffled variants) is 0.21 s⁻¹; in series [4] (setting [6]), 0.21 s⁻¹.

B11: P056028-C-09 (protein)
chain: B1 chain with D107G, G191A, S206P, S214N, L278H, S417G, R434Q
modifications: Zea mays variant form created by artificial means.
Turning to B11, the ON rate ratio in series [1] amounted to 0.706. Besides, the OFF rate ratio in series [2] is 0.314. In addition, the “ON × OFF” value in series [3] (Megatable 3, shuffled variants) is 0.222; in series [3] (setting [5]), 0.222. The “ON × OFF × kcat” value stood at 3.76 in series [3] (Megatable 3, shuffled variants) and 3.76 in series [3] (setting [5]). For the same molecule, the kcat in series [4] (Megatable 3, shuffled variants) is 0.283 s⁻¹; in series [4] (setting [6]) it was 0.283 s⁻¹.

A word on the kcat: it is the maximal rate divided by the concentration of active sites.
